We go through 40 sequences from the nanobody polyreactivity screen of Harvey et al. (2022).

The data set in a line: yeast display, Sf9 membrane polyspecificity reagent, FACS + sequencing; frameworks hold sequencing errors. A digest of the protocol:
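Polyreactivity labels are assigned by the sorting gate from which each nanobody was recovered. The gates were low and high (top ~1%), set on anti-HA fluorescence for expression and streptavidin fluorescence for reagent binding. Before sorting, galactose-induced (36–48 hours) yeast display cells were stained for 1 hour at 4 °C with 10% biotinylated, detergent-solubilized Sf9 membrane reagent.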
Consider “QVQLVESGGGLVQAGGSLRLSCAASGNIFPAYVMGWYRQAPGKERELVAAITDSDGSTFYADSVKGRFTISRDNAKNTVYLQMNSLKPEDTAVYYCAAYSYRQGWGFGYWGQGTQVTVSS”, for which the “polyreactivity (PSR sort gate)” value is reported as “low polyreactivity”.
Regarding “QVQLVESGGGLVQAGGSLRLSCAASGNIFPRNAMGWYRQAPGKERELVAAISASGDNTYYADSVKGRFTISRDNAKNTVYLQMNSLKPEDTAVYYCAAGTFYESIQPYESVAYDYWGQGTQVTVSS”, the “polyreactivity (PSR sort gate)” value is listed as “low polyreactivity”.
Next, “QVQLVESGGGLVQAGGSLRLSCAASGNIFPYYAMGWYRQAPGKERELVAAISGSGDRTYYADSVKGRFTIARDNAKNTVYLQMNSLKPEDTAVYYCAASRRYYGWYEYWGQGSQVTVSS”: “high polyreactivity”; “QVQLVESGGGLVQAGGSLRLSCAASGNIFPYYAMGWYRQAPGKERELVASISRSGGSTYYADSVKGRFTISRDNAKNTVYLQMNSLKPEDTAVYYCAKRTPYYGFGFFHPARGYGYWGQGTQVTVSS”: “low polyreactivity”; “QVQLVESGGGLVQAGGSLRLSCAASGNIFQKYAMGWYRQAPGKERELVAAIRRGDRTYADSVKGRFTISRDNAKNTVYLQMNSLKPEDTAVYYCNTAGASYFTAGYGYWGQGTQVTVSS”: “low polyreactivity”.
“QVQLVESGGGLVQAGGSLRLSCAASGNIFSAYAMGWYRQAPGKERELVAAITNGGRTNYADSVKGRFSISRDNAKNTVYLQMNSLKPEDTAVYYCAVASTILGKRTYYYWGQGTQVTVSS”: the “polyreactivity (PSR sort gate)” value is reported as “low polyreactivity”.
Next, “QVQLVESGGGLVQAGGSLRLSCAASGNIFSDNAMGWYIQAPGKERELVAAITSGGSTNYADSVKGRFTISLDNAKNTVYLQMISLKPEDNAVYYCAADISYRHFLFDYWGQGTQVTVSS”: “low polyreactivity”; “QVQLVESGGGLVQAGGSLRLSCAASGNIFSLNGMGWYRQAPGKEREFVAAITWSVGSTSSADSVKGRFTISRDNAKNTVYLQMNSLKPEDTAVYYGAATVSDLYKHEYYYWGQGTQVTVSS”: “low polyreactivity”; “QVQLVESGGGLVQAGGSLRLSCAASGNIFSPYAMGWYRPAPGKERELVAAISSGDSTYYADSVKGRFTISRDNAKNTVYLQMNSLKPEDTAVYYCAADANYSNYQYYEFDYWGQGTQVTVSS”: “low polyreactivity”.
For the sequence “QVQLVESGGGLVQAGGSLRLSCAASGNIFSRYAMGWYREPRGKERELVAAISSSGGTTYYADSVKGRFTISRDNAKNTVYLQMNSLKPEDTAVYYCNARRRQIYSEFGYWGQGTQVTVSS”, the “polyreactivity (PSR sort gate)” value is listed as “high polyreactivity”.
Next, “QVQLVESGGGLVQAGGSLRLSCAASGNIFSTYAMGWYRQAPGKERELVASISENGGSTYYADSVKGRFTISRDNAKNTVYLQMNSLKPEDTAVYYCNADAYVYFDDGDYWGQGTQVTVSS”: “low polyreactivity”.
“QVQLVESGGGLVQAGGSLRLSCAASGNIFTSNAMGWYRQAPGKERELVAAITSGGSTYYADSLKGRFTISRDNAKNTVYLQMISLKPEDTAVYYCATLRRPHLRPYYYWGQGTQVTVSS”: the “polyreactivity (PSR sort gate)” value is listed as “high polyreactivity”.
On to “QVQLVESGGGLVQAGGSLRLSCAASGNIFTTYAMGWYRQAPGKERELVAAISRSGGRTNYADSVKGRFTISRDNAKNTVYLQLNSLKPEDTAVYYCAADGVPGRAVDYEYWGQGTQVTVSS”, for which the “polyreactivity (PSR sort gate)” value was “high polyreactivity”.
Next, “QVQLVESGGGLVQAGGSLRLSCAASGNIFVAYAMGWYRQAPGKEREMVAAISSRGGRTYYADSVKGRFTISRDNAKNTVYLQMNSLKPEDTAVYYCATDVGYYRKYEYYYWGQGTQVTVSS”: “high polyreactivity”; “QVQLVESGGGLVQAGGSLRLSCAASGNIFVFYVMGWYRQAPGNEREFVASFSSTGNTYYADSVKGRFTISRDNAKNTVYLQLNSLKPEDTAVYYCAADSHQNVSGWLRWPRMDYWGQGTQVTVSS”: “low polyreactivity”.
Next, “QVQLVESGGGLVQAGGSLRLSCAASGNIFVNYAMGWYRQAPGKERELVASINYNGGNTYYADSVKGRFTISRDNAKNTVYLQMNSLKPEDTAVYYCAKDGGGLLRWYTDEYDYWGQGTQVTVSS”: “low polyreactivity”; “QVQLVESGGGLVQAGGSLRLSCAASGNIFVRYSKGWYRQAPGKERELVAVISSGGSTNYADSVKGRFTISRDNAKNTVYLQMNSLKPEDSAVYYCARKYYSQAISSRKYGYWGQGTQVTVSS”: “high polyreactivity”; “QVQLVESGGGLVQAGGSLRLSCAASGNIFVTYDMGWYRQAPGKEREMVASISWNGGSTHYADSVKGLFTISGDNAKYSVYLQMNSRKPEDTAVYYCAAEYWTSYADYRYDYWGQGTQVTVSS”: “low polyreactivity”.
For “QVQLVESGGGLVQAGGSLRLSCAASGNIFYAYDMGWYRQAPGKERELVAAITNGDSTDYADSVKGRFTISRENAKNTVYLQMNSLKPEDTAVYYCNADYLPAPWALGGSQYDYCGQGTQVTVSS”, the “polyreactivity (PSR sort gate)” value is “low polyreactivity”.
Next, “QVQLVESGGGLVQAGGSLRLSCAASGNIFYGYAMGWYRQAPGKERELVAAITSSGGGTSYADSVKGRFTISRDNAKNTVYLQMNSLKPVDTAVYYCTKRPWYLSDYWGQGTQVTVSS”: “low polyreactivity”; “QVQLVESGGGLVQAGGSLRLSCAASGNIFYKNTMGWYRQAPGKERELVAAISVSGGGTYYADSVKGRFTISRDNAKNTVYLQMNSLKPEDTAVYYCAASHRRSGGQPRYYYWGQGTQVSVSS”: “high polyreactivity”; “QVQLVESGGGLVQAGGSLRLSCAASGNIFYQYAMGWYRQAPGKEREFVAAISISGTSTYADSVKGRFTISRDNAKNTVYLQMNSLKPEDTAVYWGQGTQVTVSS”: “low polyreactivity”.
“QVQLVESGGGLVQAGGSLRLSCAASGNIFYYNAMGWYRQAPGKERELVAAISDSGSSTHYADSVKGRFTISRDNAKNTVYLQMNSLKPEDTAVYYCGARATTNRFRYYYWGQGTQVTVSS”: the “polyreactivity (PSR sort gate)” value is recorded as “high polyreactivity”.
Next, “QVQLVESGGGLVQAGGSLRLSCAASGNIFYYYAMGWYRQAPGKERELVATNTSGGSTNYADSVKGRFTISRDNAKNTVYLQMNSLKPEDTAVYYCAADRRRTYYWLSSYFEGYYWGQGTQVTVSS”: “low polyreactivity”; “QVQLVESGGGLVQAGGSLRLSCAASGNIIAYYAMGWSRQPPGKDRELVAAITDSGGNTFYADSVKGRFTISRDNAKNSVFLQMNSLKPEDTAVYYCAADPDCWGFVYPRYDYWGQGTQVTVSS”: “low polyreactivity”.
Regarding “QVQLVESGGGLVQAGGSLRLSCAASGNIIVENAMGWYRQAPAKERELVAVSTSGTSTYADSVKGRFTISRDNAKITVYLQMNSLKPEDTAVYYCNARRINTLYDYWGQGTQVTVSS”, the “polyreactivity (PSR sort gate)” value is recorded as “low polyreactivity”.
Regarding “QVQLVESGGGLVQAGGSLRLSCAASGNILGYNAMGWYRQAPGKERELVAAITQSGGSTYYADSVKGRFTISRDNAKNTVDLQMNSLIPEDTAVYYCAAVGYYYSALDMDYWGQGTQVTVSS”, the “polyreactivity (PSR sort gate)” value is “low polyreactivity”.
On to “QVQLVESGGGLVQAGGSLRLSCAASGNILLTNAMGWYRQAPGKEREFVAAIRWSGSRTYYADSVKGRFTISRDNAKNTVYLQMNSLKPEDTAVYYCAVRAVWPVSYGYWYYYWGQGTQVTVSS”, for which the “polyreactivity (PSR sort gate)” value is “high polyreactivity”.
In the case of “QVQLVESGGGLVQAGGSLRLSCAASGNIRNYGMGCSRQAPGKERELVDAISSGGVRTYYADSVKGRFTLSRDNAKNTVYLQMNSLKPEETAVYYCAVASWYYLYPPGYRAITHDYWGQGTQVTVSS”, the “polyreactivity (PSR sort gate)” value is reported as “high polyreactivity”.
In the case of “QVQLVESGGGLVQAGGSLRLSCAASGNIYNYAMGWYIQAPGKERELVAAIRSSDGSTYYADSVKGRFTISRDNAKNTVYLQMNSLKPEDTAVYDCARRTRRTSTYYYYGSRYYYWGQGTQVTVSS”, the “polyreactivity (PSR sort gate)” value was “high polyreactivity”.
Next, “QVQLVESGGGLVQAGGSLRLSCAASGNTFAQYGMGWYRQAPGKEREFVAAITRRGGSTYYADSVKGRFTISRDNAKNTVYLQMNSLKPEDTAVFYCAAGHYRRRYPSYGLQEYDYWGQGTQVTVSS”: “high polyreactivity”.
With “QVQLVESGGGLVQAGGSLRLSCAASGNTFAVNAMGWYRQAPGKERELVAAISRSGVTTRYADSVKGRFTISRDNAKNTVYLLMNSLKPEDTAVYYCNADPRLRQTRDYWGQGTQVTVSS”, the “polyreactivity (PSR sort gate)” value was “high polyreactivity”.
Take “QVQLVESGGGLVQAGGSLRLSCAASGNTFDGYDMGWYRQAPGNKRELVAAITNTGASTYYADSVKGRCTISRDNAKNTVYLQMNSLKPEDTAVYYCNAQDSYPEDRHGMSYWGQGTQVTVSS”: the “polyreactivity (PSR sort gate)” value is “low polyreactivity”.
Next, “QVQLVESGGGLVQAGGSLRLSCAASGNTFDPNAMGWYRQAPGKEREFVAAISTIGSSTYYADSVKGRFTISRDNAKNTVYLQMNSLKPEDTAVYYSNADYFQDRLDYWGQGTQVTVSS”: “low polyreactivity”; “QVQLVESGGGLVQAGGSLRLSCAASGNTFDRYAMGWYRQAPGKERELVAAITRSGGNTYYADSVKGRFTISRDNAKNTVYLQMNSLKPEDTAVYYCAAYFFPYYTGYGYWGQGTQVTVSS”: “high polyreactivity”.
For the sequence “QVQLVESGGGLVQAGGSLRLSCAASGNTFGIYAMGWYRQAPGKERELVAAISSGTSTNYADSVKGRFTISRDNAKNTVYLQMNSLKPEDTAVYYCNADDQYQDVREDFWGQGTQVTVSS”, the “polyreactivity (PSR sort gate)” value is recorded as “low polyreactivity”.
With “QVQLVESGGGLVQAGGSLRLSCAASGNTFGKYAMGWYRHAPGKERELVAAISKSSGSTYYADSVKGRFTLSRDNAKNTVYLQMNSLKPEDTAVYYCAACWYSYRYSRLGFGSWGQGTQVTVSS”, the “polyreactivity (PSR sort gate)” value was “high polyreactivity”.
In the case of “QVQLVESGGGLVQAGGSLRLSCAASGNTFGNYGMGWYRQAPGKEREFVAAITSRGTSTYYADSVKGRFTISRDNAKNTVYLQMNSLKPEDTAVYYCNARPRYKYPRYDYWGQGTQVTVSS”, the “polyreactivity (PSR sort gate)” value is “high polyreactivity”.
For “QVQLVESGGGLVQAGGSLRLSCAASGNTFGTYVMGWYRQAPGKERELVAAISQSGGSTDYADSVKGRFTISRYNAKNTVYLQMNSLKPEDTAVYYCATDGHYLYNRKYYRLTRYYYWGQGTQVTVSS”, the “polyreactivity (PSR sort gate)” value is reported as “low polyreactivity”.
“QVQLVESGGGLVQAGGSLRLSCAASGNTFHSNAMGWYRQAPGKERELVAAITPSDGDTYYADSVKGRFTISRDIAKNTVYLQMNSLKPEDTAVYYCAADPEPSYRFDYWGQGTQVTVSS”: the “polyreactivity (PSR sort gate)” value is given as “low polyreactivity”.
